Experimental data taken from the supplement of paper PMC5998384.

What was measured:
[1] = system: HeLa Kyoto; test: thermal stability score vs G1/S (z-score of summed log2 fold changes over temperatures); higher = more thermally stable than in G1/S
[2] = system: HeLa Kyoto; test: melting temperature (median over replicates), in situ; higher = more thermally stable
[3] = cell cycle stage: early G1 (4.5 h after nocodazole release)
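Throughout, for melting temperature (median over replicates), in situ: HeLa Kyoto cells synchronized by double thymidine or nocodazole block, proteins quantified by TMT10plex mass spectrometry, three independent biological replicates.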
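Throughout, for thermal stability score vs G1/S (z-score of summed log2 fold changes over temperatures): synchronized HeLa Kyoto cells, proteins quantified by TMT10plex mass spectrometry, three biological replicates, mitosis taken 0.5 h after nocodazole release, G1/S directly after double thymidine block.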

Sequence of LDHAL6A (chain, as listed by the source): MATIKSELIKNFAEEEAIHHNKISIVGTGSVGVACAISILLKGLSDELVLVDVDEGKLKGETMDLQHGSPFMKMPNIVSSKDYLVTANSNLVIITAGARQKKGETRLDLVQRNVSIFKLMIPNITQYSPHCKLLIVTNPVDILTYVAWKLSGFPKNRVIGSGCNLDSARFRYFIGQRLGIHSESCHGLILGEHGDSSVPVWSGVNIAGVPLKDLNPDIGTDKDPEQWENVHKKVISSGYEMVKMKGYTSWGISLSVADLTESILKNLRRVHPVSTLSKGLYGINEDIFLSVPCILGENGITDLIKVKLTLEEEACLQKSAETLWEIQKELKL

| Substance | thermal stability score [1, 3] | thermal stability score ([1]; cell cycle stage: mitosis) | melting temperature ([2]; cell cycle stage: G1/S) | melting temperature ([2]; cell cycle stage: mitosis) |
| --- | --- | --- | --- | --- |
| LDHAL6A | -1.33 | -1.23 | 61.6 °C |  |
| MAACRALKAVLVDLSGTLHIEDAAVPGAQEALKRLRGASVIIRFVTNTTKESKQDLLERLRKLEFDISEDEIFTSLTAARSLLERKQVRPMLLVDDRALPDFKGIQTSDPNAVVMGLAPEHFHYQILNQAFRLLLDGAPLIAIHKARYYKRKDGLALGPGPFVTALEYATDTKATVVGKPEKTFFLEALRGTGCEPEEAVMIGDDCRDDVGGAQDVGMLGILVKTGKYRASDEEKINPPPYLTCESFPHAVDHILQHLL [HDHD2] | -2.07 | -2.57 | 57.3 °C | 59 °C |
| MADVINVSVNLEAFSQAISAIQALRSSVSRVFDCLKDGMRNKETLEGREKAFIAHFQDNLHSVNRDLNELERLSNLVGKPSENHPLHNSGLLSLDPVQDKTPLYSQLLQAYKWSNKLQYHAGLASGLLNQQSLKRSANQMGVSAKRRPKAQPTTLVLPPQYVDDVISRIDRMFPEMSIHLSRPNGTSAMLLVTLGKVLKVIVVMRSLFIDRTIVKGYNENVYTEDGKLDIWSKSNYQVFQKVTDHATTALLHYQLPQMPDVVVRSFMTWLRSYIKLFQAPCQRCGKFLQDGLPPTWRDFRTLEAFHDTCRQ [MED27] | -0.132 | 0.247 | 48.5 °C |  |
| MAFSQVQCLDDNHVNWRSSESKPEFFYSEEQRLALEALVARGRDAFYEVLKRENIRDFLSELELKRILETIEVYDPGSEDPRGTGPSQGPEDNGVGDGEEASGADGVPIEAEPLPSLEYWPQKSDRSIPQLDLGWPDTIAYRGVTRASVYMQPPIDGQAHIKEVVRKMISQAQKVIAVVMDMFTDVDIFKDLLDAGFKRKVAVYIIVDESNVKYFLHMCERACMHLGHLKNLRVRSSGGTEFFTRSATKFKGALAQKFMFVDGDRAVCGSYSFTWSAARTDRNVISVLSGQVVEMFDRQFQELYLMSHSVSLKGIPMEKEPEPEPIVLPSVVPLVPAGTVAKKLVNPKYALVKAKSVDEIAKISSEKQEAKKPLGLKGPALAEHPGELPELLPPIHPGLLHLERANMFEYLPTWVEPDPEPGSDILGYINIIDPNIWNPQPSQMNRIKIRDTSQASAQHQLWKQSQDSRPRPEPCPPPEPSAPQDGVPAENGLPQGDPEPLPPVPKPRTVPVADVLARDSSDIGWVLELPKEEAPQNGTDHRLPRMAGPGHAPLQRQLSVTQDDPESLGVGLPNGLDGVEEEDDDDYVTLSDQDSHSGSSGRGPGPRRPSVASSVSEEYFEVREHSVPLRRRHSEQVANGPTPPPRRQLSAPHITRGTFVGPQGGSPWAQSRGREEADALKRMQAQRSTDKEAQGQQFHHHRVPASGTRDKDGFPGPPRYRSAADSVQSSTRNAGPAMAGPHHWQAKGGQVPRLLPDPGSPRLAQNARPMTDGRATEEHPSPFGIPYSKLSQSKHLKARTGGSQWASSDSKRRAQAPRDRKDP [FAM83G] | 1.03 | 0.873 | 51.3 °C |  |
| MAIAQLATEYVFSDFLLKEPTEPKFKGLRLELAVDKMVTCIAVGLPLLLISLAFAQEISIGTQISCFSPSSFSWRQAAFVDSYCWAAVQQKNSLQSESGNLPLWLHKFFPYILLLFAILLYLPPLFWRFAAAPHICSDLKFIMEELDKVYNRAIKAAKSARDLDMRDGACSVPGVTENLGQSLWEVSESHFKYPIVEQYLKTKKNSNNLIIKYISCRLLTLIIILLACIYLGYYFSLSSLSDEFVCSIKSGILRNDSTVPDQFQCKLIAVGIFQLLSVINLVVYVLLAPVVVYTLFVPFRQKTDVLKVYEILPTFDVLHFKSEGYNDLSLYNLFLEENISEVKSYKCLKVLENIKSSGQGIDPMLLLTNLGMIKMDVVDGKTPMSAEMREEQGNQTAELQGMNIDSETKANNGEKNARQRLLDSSC [PANX1] | -1.3 | -1.3 | 57.4 °C | 55.7 °C |
| MASASSGPSSSVGFSSFDPAVPSCTLSSAASGIKRPMASEVLEARQDSYISLVPYASGMPIKKIGHRSVDSSGETTYKKTTSSALKGAIQLGITHTVGSLSTKPERDVLMQDFYVVESIFFPSEGSNLTPAHHYNDFRFKTYAPVAFRYFRELFGIRPDDYLYSLCSEPLIELCSSGASGSLFYVSSDDEFIIKTVQHKEAEFLQKLLPGYYMNLNQNPRTLLPKFYGLYCVQAGGKNIRIVVMNNLLPRSVKMHIKYDLKGSTYKRRASQKEREKPLPTFKDLDFLQDIPDGLFLDADMYNALCKTLQRDCLVLQSFKIMDYSLLMSIHNIDHAQREPLSSETQYSVDTRRPAPQKALYSTAMESIQGEARRGGTMETDDHMGGIPARNSKGERLLLYIGIIDILQSYRFVKKLEHSWKALVHDGDTVSVHRPGFYAERFQRFMCNTVFKKIPLKPSPSKKFRSGSSFSRRAGSSGNSCITYQPSVSGEHKAQVTTKAEVEPGVHLGRPDVLPQTPPLEEISEGSPIPDPSFSPLVGETLQMLTTSTTLEKLEVAESEFTH [PIP5K1A] | 1.38 | 1.13 | 51.4 °C | 51.5 °C |
| MATKEKLQCLKDFHKDILKPSPGKSPGTRPEDEAEGKPPQREKWSSKIDFVLSVAGGFVGLGNVWRFPYLCYKNGGGAFLIPYFIFLFGSGLPVFFLEIIIGQYTSEGGITCWEKICPLFSGIGYASVVIVSLLNVYYIVILAWATYYLFQSFQKELPWAHCNHSWNTPHCMEDTMRKNKSVWITISSTNFTSPVIEFWERNVLSLSPGIDHPGSLKWDLALCLLLVWLVCFFCIWKGVRSTGKVVYFTATFPFAMLLVLLVRGLTLPGAGAGIKFYLYPDITRLEDPQVWIDAGTQIFFSYAICLGAMTSLGSYNKYKYNSYRDCMLLGCLNSGTSFVSGFAIFSILGFMAQEQGVDIADVAESGPGLAFIAYPKAVTMMPLPTFWSILFFIMLLLLGLDSQFVEVEGQITSLVDLYPSFLRKGYRREIFIAFVCSISYLLGLTMVTEGGMYVFQLFDYYAASGVCLLWVAFFECFVIAWIYGGDNLYDGIEDMIGYRPGPWMKYSWAVITPVLCVGCFIFSLVKYVPLTYNKTYVYPNWAIGLGWSLALSSMLCVPLVIVIRLCQTEGPFLVRVKYLLTPREPNRWAVEREGATPYNSRTVMNGALVKPTHIIVETMM [SLC6A6] | -2.77 | -2.51 | 57.6 °C | 57.2 °C |
| MAYHSGYGAHGSKHRARAAPDPPPLFDDTSGGYSSQPGGYPATGADVAFSVNHLLGDPMANVAMAYGSSIASHGKDMVHKELHRFVSVSKLKYFFAVDTAYVAKKLGLLVFPYTHQNWEVQYSRDAPLPPRQDLNAPDLYIPTMAFITYVLLAGMALGIQKRFSPEVLGLCASTALVWVVMEVLALLLGLYLATVRSDLSTFHLLAYSGYKYVGMILSVLTGLLFGSDGYYVALAWTSSALMYFIVRSLRTAALGPDSMGGPVPRQRLQLYLTLGAAAFQPLIIYWLTFHLVR [YIF1A] | -0.13 | -2.04 | 57.2 °C |  |
| MDLAANEISIYDKLSETVDLVRQTGHQCGMSEKAIEKFIRQLLEKNEPQRPPPQYPLLIVVYKVLATLGLILLTAYFVIQPFSPLAPEPVLSGAHTWRSLIHHIRLMSLPIAKKYMSENKGVPLHGGDEDRPFPDFDPWWTNDCEQNESEPIPANCTGCAQKHLKVMLLEDAPRKFERLHPLVIKTGKPLLEEEIQHFLCQYPEATEGFSEGFFAKWWRCFPERWFPFPYPWRRPLNRSQMLRELFPVFTHLPFPKDASLNKCSFLHPEPVVGSKMHKMPDLFIIGSGEAMLQLIPPFQCRRHCQSVAMPIEPGDIGYVDTTHWKVYVIARGVQPLVICDGTAFSEL [C6ORF89] | 0.0285 | -2.22 | 53.2 °C |  |
| MEAAVAPGRDAPAPAASQPSGCGKHNSPERKVYMDYNATTPLEPEVIQAMTKAMWEAWGNPSSPYSAGRKAKDIINAARESLAKMIGGKPQDIIFTSGGTESNNLVIHSVVKHFHANQTSKGHTGGHHSPVKGAKPHFITSSVEHDSIRLPLEHLVEEQVAAVTFVPVSKVSGQAEVDDILAAVRPTTRLVTIMLANNETGIVMPVPEISQRIKALNQERVAAGLPPILVHTDAAQALGKQRVDVEDLGVDFLTIVGHKFYGPRIGALYIRGLGEFTPLYPMLFGGGQERNFRPGTENTPMIAGLGKAAELVTQNCEAYEAHMRDVRDYLEERLEAEFGQKRIHLNSQFPGTQRLPNTCNFSIRGPRLQGHVVLAQCRVLMASVGAACHSDHGDQPSPVLLSYGVPFDVARNALRLSVGRSTTRAEVDLVVQDLKQAVAQLEDQA [SCLY] | -0.479 | -0.778 | 55.4 °C | 51.5 °C |
| MSKMPAKKKSCFQITSVTTAQVATSITEDTESLDDPDESRTEDVSSEIFDVSRATDYGPEEVCERSSSEETLNNVGDAETPGTVSPNLLLDGQLAAAAAAPANGGGVVSARSVSGALASTLAAAATSAPAPGAPGGPQLAGSSAGPVTAAPSQPPTTCSSRFRVIKLDHGSGEPYRRGRWTCMEYYERDSDSSVLTRSGDCIRHSSTFDQTAERDSGLGATGGSVVVVVASMQGAHGPESGTDSSLTAVSQLPPSEKMSQPTPAQPQSFSVGQPQPPPPPVGGAVAQSSAPLPPFPGAATGPQPMMAAAQPSQPQGAGPGGQTLPPTNVTLAQPAMSLPPQPGPAVGAPAAQQPQQFAYPQPQIPPGHLLPVQPSGQSEYLQQHVAGLQPPSPAQPSSTGAAASPATAATLPVGTGQNASSVGAQLMGASSQPSEAMAPRTGPAQGGQVAPCQPTGVPPATVGGVVQPCLGPAGAGQPQSVPPPQMGGSGPLSAVPGGPHAVVPGVPNVPAAVPAPSVPSVSTTSVTMPNVPAPLAQSQQLSSHTPVSRSSSIIQHVGLPLAPGTHSAPTSLPQSDLSQFQTQTQPLVGQVDDTRRKSEPLPQPPLSLIAENKPVVKPPVADSLANPLQLTPMNSLATSVFSIAIPVDGDEDRNPSTAFYQAFHLNTLKESKSLWDSASGGGVVAIDNKIEQAMDLVKSHLMYAVREEVEVLKEQIKELVERNSLLERENALLKSLSSNDQLSQLPTQQANPGSTSQQQAVIAQPPQPTQPPQQPNVSSA [TSC22D2] | 0.461 | 0.468 |  |  |
| MTGEKIRSLRRDHKPSKEEGDLLEPGDEEAAAALGGTFTRSRIGKGGKACHKIFSNHHHRLQLKAAPASSNPPGAPALPLHNSSVTANSQSPALLAGTNPVAVVADGGSCPAHYPVHECVFKGDVRRLSSLIRTHNIGQKDNHGNTPLHLAVMLGNKECAHLLLAHNAPVKVKNAQGWSPLAEAISYGDRQMITALLRKLKQQSRESVEEKRPRLLKALKELGDFYLELHWDFQSWVPLLSRILPSDACKIYKQGINIRLDTTLIDFTDMKCQRGDLSFIFNGDAAPSESFVVLDNEQKVYQRIHHEESEMETEEEVDILMSSDIYSATLSTKSISFTRAQTGWLFREDKTERVGNFLADFYLVNGLVLESRKRREHLSEEDILRNKAIMESLSKGGNIMEQNFEPIRRQSLTPPPQNTITWEEYISAENGKAPHLGRELVCKESKKTFKATIAMSQEFPLGIELLLNVLEVVAPFKHFNKLREFVQMKLPPGFPVKLDIPVFPTITATVTFQEFRYDEFDGSIFTIPDDYKEDPSRFPDL [ANKRD13C] | -0.894 | -0.663 |  |  |
| MWAFSELPMPLLINLIVSLLGFVATVTLIPAFRGHFIAARLCGQDLNKTSRQQIPESQGVISGAVFLIILFCFIPFPFLNCFVKEQCKAFPHHEFVALIGALLAICCMIFLGFADDVLNLRWRHKLLLPTAASLPLLMVYFTNFGNTTIVVPKPFRPILGLHLDLGILYYVYMGLLAVFCTNAINILAGINGLEAGQSLVISASIIVFNLVELEGDCRDDHVFSLYFMIPFFFTTLGLLYHNWYPSRVFVGDTFCYFAGMTFAVVGILGHFSKTMLLFFMPQVFNFLYSLPQLLHIIPCPRHRIPRLNIKTGKLEMSYSKFKTKSLSFLGTFILKVAESLQLVTVHQSETEDGEFTECNNMTLINLLLKVLGPIHERNLTLLLLLLQILGSAITFSIRYQLVRLFYDV [DPAGT1] | -0.912 | -2.08 |  |  |
